Consider 1 molecule from paper PMC4990422, “Coupling between the DEAD-box RNA helicases Ded1p and eIF4A” (eLife, 2016).

As usually defined, the Kd is the free concentration of one partner at which half of the binding sites on the other are occupied at equilibrium, for simple one-to-one binding. As usually defined, the stoichiometry N is the number of molecules, sites or subunits per partner or assembly.

Assay [1] concerns the target T1, eIF4G (S. cerevisiae, UniProt P39935 1-952; P07260 1-213).
T1 construct: eIF4G1, scaffolding protein of translation initiation, S. cerevisiae; present in the preparations of eIF4G; the model treats G as one unit; also called eIF4G1; S•Tag-eIF4G; source: recombinant, expression and purification previously described (Hilliker et al., 2011)
T1 sequence (looked up) 1: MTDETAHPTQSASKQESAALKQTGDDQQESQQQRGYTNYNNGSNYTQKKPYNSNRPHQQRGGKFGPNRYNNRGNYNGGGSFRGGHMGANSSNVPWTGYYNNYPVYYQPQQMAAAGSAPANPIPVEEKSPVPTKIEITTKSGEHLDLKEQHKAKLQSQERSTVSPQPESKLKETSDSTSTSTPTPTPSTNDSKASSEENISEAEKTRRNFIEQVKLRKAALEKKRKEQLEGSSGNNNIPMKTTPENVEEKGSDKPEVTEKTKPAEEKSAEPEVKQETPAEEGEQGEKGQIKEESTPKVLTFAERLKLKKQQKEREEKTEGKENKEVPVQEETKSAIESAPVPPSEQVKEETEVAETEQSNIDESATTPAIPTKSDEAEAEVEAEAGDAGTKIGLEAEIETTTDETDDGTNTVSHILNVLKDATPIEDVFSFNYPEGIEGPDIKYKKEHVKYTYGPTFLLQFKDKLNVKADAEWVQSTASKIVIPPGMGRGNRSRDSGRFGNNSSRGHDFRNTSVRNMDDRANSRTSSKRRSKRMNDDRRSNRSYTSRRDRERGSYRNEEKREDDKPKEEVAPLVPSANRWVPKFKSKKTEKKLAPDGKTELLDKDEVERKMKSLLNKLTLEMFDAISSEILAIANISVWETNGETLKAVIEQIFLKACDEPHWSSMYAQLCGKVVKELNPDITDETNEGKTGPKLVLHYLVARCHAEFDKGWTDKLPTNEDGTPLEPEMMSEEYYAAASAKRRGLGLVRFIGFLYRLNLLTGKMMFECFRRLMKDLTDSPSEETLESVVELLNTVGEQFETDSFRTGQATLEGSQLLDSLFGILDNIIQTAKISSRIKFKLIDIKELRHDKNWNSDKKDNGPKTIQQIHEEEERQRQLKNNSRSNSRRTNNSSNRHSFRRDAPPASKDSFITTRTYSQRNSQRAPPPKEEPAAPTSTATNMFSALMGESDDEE
T1 sequence (looked up) 2: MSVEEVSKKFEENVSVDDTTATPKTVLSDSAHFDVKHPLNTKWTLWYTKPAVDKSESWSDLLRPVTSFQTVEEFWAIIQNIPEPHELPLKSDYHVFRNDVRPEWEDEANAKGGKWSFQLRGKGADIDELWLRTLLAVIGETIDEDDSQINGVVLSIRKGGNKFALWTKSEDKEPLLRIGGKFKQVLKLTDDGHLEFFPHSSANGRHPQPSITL
In words: global fit of RNA unwinding time courses to a thermodynamic model; K1/2 of a binding step calculated with the model of Figure 4A; step without RNA, ATP bound to eIF4A. The note with it: both partners purified.

Assay [2] addresses T2, Ded1p-eIF4G complex (S. cerevisiae, UniProt P06634 1-604; P39935 1-952; P07260 1-213).
T2 construct: Ded1p, S. cerevisiae, wild type, as Wm1; eIF4G1, S. cerevisiae, as in Wm3; eIF4E, S. cerevisiae, as in Wm3; present in the preparations of eIF4G; State of the thermodynamic model; also called DG; DTG; source: formed from the purified recombinant proteins; copies: + +
The description is as above. The note with it: both partners purified.

Assay [3] addresses T1, eIF4G. In words: global fit of RNA unwinding time courses to a thermodynamic model; K1/2 of a binding step calculated with the model of Figure 4A; RNA bound to the binder before the step, no ATP. Particulars: both partners purified.
Assay [4] has as its target T2, Ded1p-eIF4G complex. Described as above. Particulars: both partners purified.
The target in assay [5] is T1, eIF4G. Nature of the assay: global fit of RNA unwinding time courses to a thermodynamic model; K1/2 of a binding step calculated with the model of Figure 4A; RNA bound to the target before the step, no ATP. Particulars: both partners purified.
In assay [6] the target is T2, Ded1p-eIF4G complex. Described as above. The note with it: both partners purified.
The target in assay [7] is T2, Ded1p-eIF4G complex. Nature of the assay: global fit of RNA unwinding time courses to a thermodynamic model; K1/2 of a binding step calculated with the model of Figure 4A; RNA bound to the binder before the step, ATP bound to Ded1p. The note with it: both partners purified.
The target of assay [8] is T1, eIF4G. In words: global fit of RNA unwinding time courses to a thermodynamic model; K1/2 of a binding step calculated with the model of Figure 4A; RNA bound to the binder before the step, ATP bound to eIF4A. The note with it: both partners purified.
Assay [9] has as its target HA-tagged Ded1p (His6-Ded1p-HA3) (S. cerevisiae), P06634. In words: pull-down; Ded1p-HA held on anti-HA antibody and Protein G Dynabeads; 300 nM S•Tag-eIF4G or 1500 nM eIF4A added alone; 20 µg/mL RNases A,B; 8°C overnight; washed with HRB-Na100 buffer; Western blot. Particulars: remark: other sources report otherwise. For orientation: Immunoblotting shows a protein as a band on a membrane.

In assay [10] the target is Ded1p (wild type, N-terminal His6-tag) (S. cerevisiae), P06634. In words: cross-linking; formaldehyde 1% (v/v), 30 min, room temperature; Ded1p 0.3 µM, eIF4A 2 µM or as indicated, RNA 2 µM (16 bp, 25 nt 3'-overhang), 0.5 mM ADPNP-MgCl2, unwinding buffer; Western blot with α-Ded1p. The note with it: remark: other sources report otherwise.
Chain of Ded1p (wild type, N-terminal His6-tag) (S. cerevisiae), P06634 (P06634 whole entry): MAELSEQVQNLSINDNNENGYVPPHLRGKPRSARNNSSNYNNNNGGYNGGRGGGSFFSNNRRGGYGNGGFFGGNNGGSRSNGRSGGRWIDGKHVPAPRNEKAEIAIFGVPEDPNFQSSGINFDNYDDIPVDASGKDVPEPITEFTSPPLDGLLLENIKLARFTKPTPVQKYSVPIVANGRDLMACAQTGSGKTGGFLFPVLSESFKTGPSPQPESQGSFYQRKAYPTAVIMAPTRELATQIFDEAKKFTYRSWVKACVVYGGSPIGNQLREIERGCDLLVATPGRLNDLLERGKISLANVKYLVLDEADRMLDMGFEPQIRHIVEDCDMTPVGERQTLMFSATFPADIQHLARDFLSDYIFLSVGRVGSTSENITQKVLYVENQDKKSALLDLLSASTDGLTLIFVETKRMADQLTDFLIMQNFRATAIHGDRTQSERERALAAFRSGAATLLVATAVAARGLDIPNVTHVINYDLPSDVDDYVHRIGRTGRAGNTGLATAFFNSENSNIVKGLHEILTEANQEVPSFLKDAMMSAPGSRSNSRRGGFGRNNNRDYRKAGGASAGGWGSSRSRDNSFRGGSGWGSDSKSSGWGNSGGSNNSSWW

T2 sequence (P06634 whole entry, one chain of several): as the sequence (P06634 whole entry) above
Chain of HA-tagged Ded1p (His6-Ded1p-HA3) (S. cerevisiae), P06634 (P06634 whole entry): as above

B1: eIF4A (enzyme, S. cerevisiae, UniProt P10081 1-395, looked up)
chain: MSEGITDIEESQIQTNYDKVVYKFDDMELDENLLRGVFGYGFEEPSAIQQRAIMPIIEGHDVLAQAQSGTGKTGTFSIAALQRIDTSVKAPQALMLAPTRELALQIQKVVMALAFHMDIKVHACIGGTSFVEDAEGLRDAQIVVGTPGRVFDNIQRRRFRTDKIKMFILDEADEMLSSGFKEQIYQIFTLLPPTTQVVLLSATMPNDVLEVTTKFMRNPVRILVKKDELTLEGIKQFYVNVEEEEYKYECLTDLYDSISVTQAVIFCNTRRKVEELTTKLRNDKFTVSAIYSDLPQQERDTIMKEFRSGSSRILISTDLLARGIDVQQVSLVINYDLPANKENYIHRIGRGGRFGRKGVAINFVTNEDVGAMRELEKFYSTQIEELPSDIATLLN
notes: eIF4A, DEAD-box RNA helicase, S. cerevisiae, wild type; also called wild-type yeast eIF4A; source: recombinant, purified as described (Hilliker et al., 2011)
Take B1: the dissociation constant Kd in the assay with eIF4G [1] is 1000 nM; with Ded1p-eIF4G complex [2], 0.28 nM; with eIF4G [3] it was 25 nM; with Ded1p-eIF4G complex [4], 0.003 nM; in the assay with eIF4G [5], 1060 nM; with Ded1p-eIF4G complex [6], 7 nM. The figures for the dissociation constant (Kd) with Ded1p-eIF4G complex [7] and with eIF4G [8] were 0.006 nM and 49 nM, respectively. Moreover, the relative band intensity (pull-down compared to input) in assay [9] was 96%. In [10], this molecule yielded a stoichiometry N of 1.
